In the supplement of paper PMC9233669 one finds self-aminoacylation data, which are given here for 25 sequences.

This sample holds only a part of the variants without activity.

The test system of one data set is biotinyl-Phe-oxazolone. Kind of data set: self-aminoacylation, catalytic enhancement (BFO) (fold over background); higher = more active; k-Seq, kA / k0A0; sequences stand for … in GGGAAUGGAUCCACAUCUACGAAUUC…UUCACUGCAGACUUGACGAAGCUG
In a few lines: (§1)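 Mutagenized RNA pools with a 21-nt variable region (0.43 μM) reacted with each biotinyl-aminoacyl-oxazolone at 2–1250 μM. Reactions ran in 50 μL HEPES/NaCl/KCl/MgCl2/CaCl2 buffer with 5% acetonitrile, pH 6.9–7.0, for 90 minutes at room temperature. Streptavidin-captured RNA was quantified by triplicate qPCR and Illumina sequencing, and per-sequence fraction reacted was fit to a pseudo-first-order model with 1000 bootstraps. Catalytic enhancement is median kA divided by the uncatalyzed rate, the low-activity peak of a bimodal Gaussian fit.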

The subject of a further data set is biotinyl-Ile-oxazolone. The data set is described as follows: self-aminoacylation, catalytic enhancement (BIO) (fold over background); higher = more active; k-Seq, kA / k0A0; sequences stand for … in GGGAAUGGAUCCACAUCUACGAAUUC…UUCACUGCAGACUUGACGAAGCUG
In a few lines: as §1

The next data set deals with biotinyl-Val-oxazolone. Kind of data set: self-aminoacylation, catalytic enhancement (BVO) (fold over background); higher = more active; k-Seq, kA / k0A0; sequences stand for … in GGGAAUGGAUCCACAUCUACGAAUUC…UUCACUGCAGACUUGACGAAGCUG
In a few lines: as §1

A further data set deals with biotinyl-Trp-oxazolone. The data set is described as follows: self-aminoacylation, catalytic enhancement (BWO) (fold over background); higher = more active; k-Seq, kA / k0A0; sequences stand for … in GGGAAUGGAUCCACAUCUACGAAUUC…UUCACUGCAGACUUGACGAAGCUG
In a few lines:
as §1

The next data set has as its system biotinyl-Met-oxazolone. The data set is described as follows: self-aminoacylation, catalytic enhancement (BMO) (fold over background); higher = more active; k-Seq, kA / k0A0; sequences stand for … in GGGAAUGGAUCCACAUCUACGAAUUC…UUCACUGCAGACUUGACGAAGCUG
In a few lines:
as §1

The next data set concerns biotinyl-Leu-oxazolone. Kind of data set: self-aminoacylation, catalytic enhancement (BLO) (fold over background); higher = more active; k-Seq, kA / k0A0; sequences stand for … in GGGAAUGGAUCCACAUCUACGAAUUC…UUCACUGCAGACUUGACGAAGCUG
In outline:
as §1

On to “CUACUGCAGACAAUCGGUCUG [Fam1A.1 aminoacylation ribozyme variant]”, for which the self-aminoacylation turned out to be 0.577 in the data set on biotinyl-Phe-oxazolone; 0.897 in the data set on biotinyl-Ile-oxazolone; 1.04 in the data set with biotinyl-Val-oxazolone; 0.497 in the data set with biotinyl-Trp-oxazolone; 1.06 in the data set with biotinyl-Met-oxazolone; 1.07 with biotinyl-Leu-oxazolone.
On to “CUACUGUAAACAAUCGGUCUG [Fam1A.1 aminoacylation ribozyme variant]”, for which the self-aminoacylation was 0.659 in the data set on biotinyl-Phe-oxazolone; 0.897 with biotinyl-Ile-oxazolone; 0.741 in the data set with biotinyl-Val-oxazolone; 0.53 in the data set with biotinyl-Trp-oxazolone; 0.887 with biotinyl-Met-oxazolone; 0.863 in the data set on biotinyl-Leu-oxazolone.
Turning to “CUACUUAAAACAAUCGCUCUG [Fam1A.1 aminoacylation ribozyme variant]”, the self-aminoacylation in the data set with biotinyl-Phe-oxazolone amounted to 0.52; with biotinyl-Ile-oxazolone, 0.623; in the data set on biotinyl-Val-oxazolone, 0.727; in the data set with biotinyl-Trp-oxazolone it was 0.462; with biotinyl-Met-oxazolone, 0.706; with biotinyl-Leu-oxazolone, 0.481.
As for “CUACUUAAAACAAUCGGUCGG [Fam1A.1 aminoacylation ribozyme variant]”, the self-aminoacylation was 0.727 with biotinyl-Phe-oxazolone; 0.878 with biotinyl-Ile-oxazolone; 0.74 with biotinyl-Val-oxazolone; 0.59 in the data set on biotinyl-Trp-oxazolone; 0.786 in the data set on biotinyl-Met-oxazolone; 0.857 with biotinyl-Leu-oxazolone.
As to “CUACUUAAAACAAUCGUUCUG [Fam1A.1 aminoacylation ribozyme variant]”, the self-aminoacylation in the data set with biotinyl-Phe-oxazolone is 0.579; in the data set on biotinyl-Ile-oxazolone, 0.568; with biotinyl-Val-oxazolone it was 0.57; in the data set with biotinyl-Trp-oxazolone, 0.503; in the data set on biotinyl-Met-oxazolone, 0.592; in the data set with biotinyl-Leu-oxazolone it was 0.432.
“CUACUUCAAAAAAUCAGUCUG [Fam1A.1 aminoacylation ribozyme variant]”: the self-aminoacylation with biotinyl-Phe-oxazolone came out at 5.75; in the data set on biotinyl-Ile-oxazolone it was 0.841; in the data set on biotinyl-Val-oxazolone, 0.754; in the data set on biotinyl-Trp-oxazolone, 2.61; in the data set with biotinyl-Met-oxazolone it was 0.744; with biotinyl-Leu-oxazolone, 0.804.
With “CUACUUCAAAAAAUCGAUCUG [Fam1A.1 aminoacylation ribozyme variant]”, the self-aminoacylation turned out to be 1.46 with biotinyl-Phe-oxazolone; 0.663 with biotinyl-Ile-oxazolone; 0.585 in the data set with biotinyl-Val-oxazolone; 0.604 in the data set on biotinyl-Trp-oxazolone; 0.601 with biotinyl-Met-oxazolone; 0.6 in the data set on biotinyl-Leu-oxazolone.
With “CUACUUCAAAAAAUCGGACUG [Fam1A.1 aminoacylation ribozyme variant]”, the self-aminoacylation with biotinyl-Phe-oxazolone worked out at 3.47; in the data set with biotinyl-Ile-oxazolone it was 0.922; in the data set on biotinyl-Val-oxazolone it was 0.539; in the data set with biotinyl-Trp-oxazolone it was 2.3; with biotinyl-Met-oxazolone it was 0.652; in the data set with biotinyl-Leu-oxazolone, 0.733.
For “CUACUUCAAAAAAUCGGUGUG [Fam1A.1 aminoacylation ribozyme variant]”, the self-aminoacylation with biotinyl-Phe-oxazolone came out at 1.89; in the data set on biotinyl-Ile-oxazolone, 0.889; in the data set on biotinyl-Val-oxazolone, 0.814; with biotinyl-Trp-oxazolone, 1.53; with biotinyl-Met-oxazolone it was 0.946; in the data set on biotinyl-Leu-oxazolone, 1.31.
As to “CUACUUCAAAAAGUCGGUCUG [Fam1A.1 aminoacylation ribozyme variant]”, the self-aminoacylation was found to be 0.598 in the data set on biotinyl-Phe-oxazolone; 0.876 in the data set with biotinyl-Ile-oxazolone; 0.773 in the data set on biotinyl-Val-oxazolone; 0.579 in the data set with biotinyl-Trp-oxazolone; 0.856 with biotinyl-Met-oxazolone; 0.779 with biotinyl-Leu-oxazolone.
As to “CUACUUCAAAAUAUCGGUCUG [Fam1A.1 aminoacylation ribozyme variant]”, the self-aminoacylation was 1.01 in the data set on biotinyl-Phe-oxazolone; 1.01 in the data set with biotinyl-Ile-oxazolone; 0.911 with biotinyl-Val-oxazolone; 0.973 with biotinyl-Trp-oxazolone; 0.936 in the data set with biotinyl-Met-oxazolone; 0.798 in the data set on biotinyl-Leu-oxazolone.
For the sequence “CUACUUCAAACAAACGGCCUG [Fam1A.1 aminoacylation ribozyme variant]”, the self-aminoacylation in the data set on biotinyl-Phe-oxazolone worked out at 0.719; in the data set on biotinyl-Ile-oxazolone it was 1.38; in the data set on biotinyl-Val-oxazolone, 1.13; in the data set on biotinyl-Trp-oxazolone, 0.967; in the data set with biotinyl-Met-oxazolone, 1.01; in the data set on biotinyl-Leu-oxazolone it was 1.18.
Take “CUACUUCAAACAAACGGUCUA [Fam1A.1 aminoacylation ribozyme variant]”: the self-aminoacylation turned out to be 0.773 in the data set on biotinyl-Phe-oxazolone; 0.751 in the data set with biotinyl-Ile-oxazolone; 0.742 in the data set on biotinyl-Val-oxazolone; 0.537 with biotinyl-Trp-oxazolone; 0.665 with biotinyl-Met-oxazolone; 0.696 in the data set on biotinyl-Leu-oxazolone.
“CUACUUCAAACAAACGGUCUG [Fam1A.1 aminoacylation ribozyme variant]”: the self-aminoacylation in the data set on biotinyl-Phe-oxazolone was 0.894; with biotinyl-Ile-oxazolone, 0.77; in the data set with biotinyl-Val-oxazolone, 0.812; in the data set with biotinyl-Trp-oxazolone, 0.615; in the data set on biotinyl-Met-oxazolone, 0.664; in the data set with biotinyl-Leu-oxazolone, 0.666.
Turning to “CUACUUCAAACAACCAGUCUG [Fam1A.1 aminoacylation ribozyme variant]”, the self-aminoacylation turned out to be 0.953 with biotinyl-Phe-oxazolone; 1.02 in the data set on biotinyl-Ile-oxazolone; 0.797 in the data set with biotinyl-Val-oxazolone; 0.573 in the data set on biotinyl-Trp-oxazolone; 0.899 in the data set on biotinyl-Met-oxazolone; 0.668 in the data set with biotinyl-Leu-oxazolone.
Take “CUACUUCAAACAACCGCUCUG [Fam1A.1 aminoacylation ribozyme variant]”: the self-aminoacylation is 0.457 with biotinyl-Phe-oxazolone; 0.776 in the data set on biotinyl-Ile-oxazolone; 0.769 with biotinyl-Val-oxazolone; 0.619 in the data set on biotinyl-Trp-oxazolone; 0.774 in the data set with biotinyl-Met-oxazolone; 0.547 with biotinyl-Leu-oxazolone.
For the sequence “CUACUUCAAACAACCGGCCUG [Fam1A.1 aminoacylation ribozyme variant]”, the self-aminoacylation in the data set on biotinyl-Phe-oxazolone amounted to 2.27; with biotinyl-Ile-oxazolone, 1.8; in the data set on biotinyl-Val-oxazolone, 1.86; with biotinyl-Trp-oxazolone, 1.49; in the data set with biotinyl-Met-oxazolone, 2.4; in the data set on biotinyl-Leu-oxazolone, 1.51.
For “CUACUUCAAACAACCGGUCUG [Fam1A.1 aminoacylation ribozyme variant]”, the self-aminoacylation with biotinyl-Phe-oxazolone turned out to be 1.07; in the data set on biotinyl-Ile-oxazolone, 0.874; in the data set with biotinyl-Val-oxazolone it was 0.845; in the data set with biotinyl-Trp-oxazolone, 0.844; with biotinyl-Met-oxazolone, 0.729; with biotinyl-Leu-oxazolone, 0.791.
“CUACUUCAAACAAGCGGACUG [Fam1A.1 aminoacylation ribozyme variant]”: the self-aminoacylation in the data set with biotinyl-Phe-oxazolone was determined as 0.818; in the data set on biotinyl-Ile-oxazolone, 0.91; in the data set on biotinyl-Val-oxazolone, 0.896; with biotinyl-Trp-oxazolone it was 0.644; in the data set on biotinyl-Met-oxazolone it was 0.81; in the data set on biotinyl-Leu-oxazolone, 0.631.
Turning to “CUACUUCAAACAAGCGGCCUG [Fam1A.1 aminoacylation ribozyme variant]”, the self-aminoacylation in the data set on biotinyl-Phe-oxazolone amounted to 0.592; in the data set with biotinyl-Ile-oxazolone, 2.41; in the data set on biotinyl-Val-oxazolone, 1.83; in the data set on biotinyl-Trp-oxazolone it was 1.68; with biotinyl-Met-oxazolone it was 1.32; in the data set on biotinyl-Leu-oxazolone, 2.08.
For the sequence “CUACUUCAAACAAGCGUUCUG [Fam1A.1 aminoacylation ribozyme variant]”, the self-aminoacylation in the data set with biotinyl-Phe-oxazolone was found to be 0.391; in the data set with biotinyl-Ile-oxazolone, 0.481; in the data set with biotinyl-Val-oxazolone it was 0.499; with biotinyl-Trp-oxazolone, 0.503; in the data set on biotinyl-Met-oxazolone it was 0.499; in the data set with biotinyl-Leu-oxazolone, 0.517.
Turning to “CUACUUCAAACAAGCUGUCUG [Fam1A.1 aminoacylation ribozyme variant]”, the self-aminoacylation with biotinyl-Phe-oxazolone amounted to 0.642; in the data set with biotinyl-Ile-oxazolone, 0.733; in the data set with biotinyl-Val-oxazolone, 0.734; in the data set with biotinyl-Trp-oxazolone, 0.356; in the data set with biotinyl-Met-oxazolone, 0.7; in the data set with biotinyl-Leu-oxazolone it was 0.795.
For the sequence “CUACUUCAAACAAUAGGUGUG [Fam1A.1 aminoacylation ribozyme variant]”, the self-aminoacylation was 1.38 in the data set with biotinyl-Phe-oxazolone; 1.07 in the data set with biotinyl-Ile-oxazolone; 0.975 with biotinyl-Val-oxazolone; 0.781 in the data set on biotinyl-Trp-oxazolone; 1.22 in the data set on biotinyl-Met-oxazolone; 1.25 in the data set with biotinyl-Leu-oxazolone.
For “CUACUUCAAACAAUCAGGCUG [Fam1A.1 aminoacylation ribozyme variant]”, the self-aminoacylation with biotinyl-Phe-oxazolone turned out to be 2.7; in the data set on biotinyl-Ile-oxazolone, 0.911; in the data set with biotinyl-Val-oxazolone, 0.723; in the data set on biotinyl-Trp-oxazolone, 1.33; with biotinyl-Met-oxazolone, 0.549; in the data set on biotinyl-Leu-oxazolone, 0.78.
As to “CUACUUCAAACAAUCAGUAUG [Fam1A.1 aminoacylation ribozyme variant]”, the self-aminoacylation in the data set on biotinyl-Phe-oxazolone was determined as 6.02; in the data set on biotinyl-Ile-oxazolone, 0.847; with biotinyl-Val-oxazolone it was 0.819; in the data set on biotinyl-Trp-oxazolone, 2.46; with biotinyl-Met-oxazolone, 0.891; with biotinyl-Leu-oxazolone, 0.777.
